The series in a line: soluble on expression in E. coli; label from the status in PepcDB or PDB records.
As to “MGSDKIHHHHHHMWENFLFSVDRKETTMSMRLLARKMLFMRGASWQHPVIRLGLTALDPVDAIIRSATGLRSLPRYSTRVRSNGLSNQFGGGKFARQGRVILHMLQRHCALSPKSRVLEIGCGCGRTAVQLASFLEAEKYVGMDIEMVSLEACRDNPHLKRRGFKFDLIDIQNNEYNPKGRFRADEYRFSYLDGSMDCVFLISVFTHMLPEDVSNYVTEIGRMLDRGGMCLFSTFLIDHGRGGRGLNFAHDGNGFSYYDVRMPEIAVAYPQRFFEDSFGRAGLVLHEVKLGSWRDDGRGSYPEFGQDVLVFKKAA”, the “soluble on expression in E. coli” value is recorded as “not soluble”.
With “MKFFILSTTLLLIGVQCGYPVAQNSYPTPPPPSDSYVVPKQSYPTAPGAYATKHSFPQNSAPVTAPPLPPPPAPSGYSSDDASVTSNVAASPPAPPTDAQIVGSSSSSTNYGGSSPTYGGSLSSGGIVGGNSLNYGTYNSASAGTPAATGAGASSGYRRRAKAKARARARARTAPNRRLHQRRHLQPIRRFRFQKKAKQ”, the “soluble on expression in E. coli” value was “soluble”.
Take “MYKILRTEKSWIEGSAVEQVKKLASLKGVENVIGYPDLHPGKTPIGISIITKDVIYPHLIGNDIGCSISLFETSELKRKFKVEKVMKTLQNSDLKNEIKKDFNLGTIGGGNHFAEFTLVDKILDESETTNFDKNKVYLLVHSGSRGLGEEILRKYIDYYSCQNGLAVNSEGFNNYISDYKKAVVFAKENRQLIAKNLCQLLNLKAFDLKIEAIHNGLELREDYIIHRKGAATALNKYVVIAGSRGDYSYIVKPINSSLETGFSIAHGAGRKWKRSGCKEKLQGKFSKKAIRNRSFSYNLICSNTNLVYEEAPEAYKNIDRVIDDLLSFNLIKVVARLKPLITYKDLEHHHHHH”: the “soluble on expression in E. coli” value is “not soluble”.
Then “VRIPALERGPGLKDLAIFSRQLATMLGAGLTLLQALAILERQTENRKFREILKQVRTDVEGGMAFSEALSKHKIFSRLYVNLVRAGETSGGLDLILDRLASFLEKELELRGKIRSA”, with “soluble”; and “MPASYAYLGPEGTFTEVALRTLPEAATRELVPMVSVPAALDAVRNGEAEAAFVPIENSVEGGITTTLDELVAGEPLMIYREVLLSITFALLVRPDTKLSEIKTVTAHPAAQPQVRNWMKANLPDVVWESAASNADGARLVQEGRYDAAFAGEFAAAKYGLVPLETGIHDAENAQTRFVLVGRPAR”, with “not soluble”.
As to “MAEEAVDARGEGARFIEKVKSICGNTSRILYKYDEPTDPRYGYLPHERPLDVYLRYGMIVVDKPPGPTSHEVVAWIKRMLGVSRAGHGGTLEPLPAPRGLRGGDILK”, the “soluble on expression in E. coli” value is on record as “soluble”.
The value for “MGSDKIHHHHHHMKAVILAAGRGSRLQALTDERPKALVPFNGVPLLQRAIETLRRCDVSEVGIVAGYRSEMLAPFADTLFYNHRWHSSGIFSSLNCASDWLSAEPCLVSYGDIFYDSTLVSELINHPADIVLGYDPAAVRLWQQRFNDPLPDLENFRLVDGWVSAIGQTATSLEVIQGQYMGLFKVTPAGWQALKKQLQGLTPQARDQTDMTSLLGTLVSEGFPVAGVATHAPWGEIDCPSDVALYERIYPDR” was “not soluble”; that for “MSLSEKIIQLNEGIIKEELKNLVRSSVEETLNHLLDKEAEDLTNAAKYERTQERQGYRSGHYTRSLQTTSGEVTLRVPKLKGVPFETAIIERYRRRESSVEEALIEMYLAGVSVRRVEDITEALWGTKVSPGTISELNKKAYVHIENWRNRPLQDGKYPYVYVDGIYLKRNWGGEYENVSILVAIAVNQEGYREVIGAREGMKEDKASWKEFLQWLKGRGLDGVKLIVGDKCLGMLESVNEVFPEAKYQRCTVHFYRNIFSVTPRSKMKLVAKMLKAIHAQESKASAREKAKLVAEELKSMKLREAAKKLEDGIEETLTYMEFPYEHWTRIRTNNTIERLNREIRRRTRVVGTFPDGNSALMLVCARLRHVAGTQWGSKKYLNMKHLENMDSDEGHHHHHH” was “soluble”; that for “MSSGVMVDPDVQTSFQKLSEGRKEYRYIIFKIDENKVIVEAAVTQDQLGITGDDYDDSSKAAFDKFVEDVKSRTDNLTDCRYAVFDFKFTCSRVGAGTSKMDKIIFLQICPDGASIKKKMVYASSAAAIKTSLGTGKILQFQVSDESEMSHKELLNKLGEKYGDH” was “not soluble”.
Then “MSYYHHHHHHLESTSLYKKAGMSDFYDPRERDPSVSRRPQNRQSDEWIRELLLRGTIARVATLWQGEDGAAFPFITPLAYAYRPEQGDLVYHTNVVGRLRANAGQGHPATLEVSEIGQFLPSNSPLELSVQYRSVMVFGTARVLAGEDARAALTTLSERVFPGLKVGETTRPISEDDLKRTSVYSLSIDRWSGKENWAEQAIQEEDWPALGPEWLG”, with “soluble”; and “MFVFMLLLLLPFTISKAKDFPANPIEKAGYKLDFSDEFNGPTLDREKWTDYYLPHWCKDPESAKANYRFENGSLVEYITEDQKPWCPEHDGTVRSSAIMSFDKSWIHNFSGTTDNHERNEWRGYTTKYGYFEIRAKLSNTGGGGHQAWWMVGMQDDTNDWFNSKQTGEIDILETFFSKKDTWRIAAYGWNDPNFQTSWTISEDKVPSGDPTSEYHIYAMEWTPTALKFYYDNELFKVIYGSPDYEMGTILNIYTDAGSGAHNDVWPKEWAIDYMRVWKPVDGYKESESLNNYLIRNRQTGKFLYIEENNDKVSYGDITLKNEKNAKWSKEYRDGYTLLKNNETGEYLNIENQTGYIEHGKVPKTWWSAQWSEVPVDGYTRFVNRWKPNMSIHTESYEGVLQYGNVPNTYWTSQWQLIPVE”, with “soluble”; and “MPLTDPAKLQIVQQRVFLKKVCRKCGALNPIRATKCRRCHSTNLRLKKKELPTKKG”, with “soluble”.
Then “MRKLMTATAALCACAVTVSAGAAWADADVQPAGSVPIPDGPAQTWIVADLDSGQVLAGRDQNVAHPPASTIKVLLALVALDELDLNSTVVADVADTQAECNCVGVKPGRSYTARQLLDGLLLVSGNDAANTLAHMLGGQDVTVAKMNAKAATLGATSTHATTPSGLDGPGGSGASTAHDLVVIFRAAMANPVFAQITAEPSAMFPSDNGEQLIVNQDELLQRYPGAIGGKTGYTNAARKTFVGAAARGGRRLVIAMMYGLVKEGGPTYWDQAATLFDWGFALNPQASVGSL”, with “soluble”; and “MAEQYSEINTDTLERVTEIFKALGDYNRIRIMELLSVSEASVGHISHQLNLSQSNVSHQLKLLKSVHLVKAKRQGQSMIYSLDDIHVATMLKQAIHHANHPKESGL”, with “soluble”.
As for “MSLSDLTIQKVESRILDVPLIRPHGFATTTSTEQHILLVSVHLENGVIGYGEGVVPGGPWWGGESVETMKALVDGYLAPVLIGRAVSELAGIMADLERVVARARYAKAAVDVAMHDAWARSLNVPVRDLLGGTVRDKVDVTWALGVLPLDVAVAEIEERIEEFGNRSFKLKMGAGDPAEDTRRVAELAREVGDRVSLRIDINARWDRRTALHYLPILAEAGVELFEQPTPADDLETLREITRRTNVSVMADESVWTPAEALAVVKAQAADVIALKTTKHGGLLESKKIAAIAEAGGLACHGATSLEGPIGTAASLQFAASTKAISYGTELFGPQLLKDTYIVQEFEYKDGQVAIPQGPGLGVDVDMDKVNFYTRKEGHHHHHH”, the “soluble on expression in E. coli” value is “soluble”.
In the case of “MSGEGDTTLKAICYKPGSLQLLDQRKLPLETIYLEIRDASDGWSAIQEMVVRGAPAIAIAAALSLAVEVFNFHGFDGSASDAVAFLENKLDYLVSSRPTAVNLADAALKLKHVIAKALATATEAKSIFKAYIEASEDMLEDDVVSNKAIGNFGLSLLRQQAKNPDKLSVLTHCNTGSLATAGYGTALGVIRALHTQGILERAYCTETRPFNQGSRLTAFELVHEKIPATLIADSAAAALMKDGRVDGVIVGADRVASNGDTANKIGTYSLALCAKHHGIPFYVAAPLTSVDLSLSSGKEIVIEERSPKELMHTHGGLGERIAAPGISVWNPAFDMTPAELIAGIITEKGVITKNGNDTFDISSFAKKITGNSSR”, the “soluble on expression in E. coli” value was “soluble”.
In the case of “MGSDKIHHHHHHMNRKGNLSMTTQLQHLTLPEDIQQKLLSYKEQPISPEFQSLIGTSGYEAEDEAILFDAIIALAMGKNVLLKGPTGSGKTKLAETLSSYFHKPMHSVNCSVDLDAEALVGYKTIENQSGQATIEFVSGPVTKAMKEGHFLYIDEINMAKPETLPILNGVLDYRKMMTNPFTGEVIRAKSGFGVIAAINEGYVGTVPLNEALKNRFVIIDVPYIKGELLKQVLMSQSALKDEKLIDRFITLSSDLIVQANNGQVSEEAASIRALIDTCDLAAYIPPRRAIERGIVEKLDDDREKAAVRNIAETLFE”, the “soluble on expression in E. coli” value was “not soluble”.

The values above are taken from the DeepSol protein solubility set.
